Experimental data published in patent US20240324599A1, “PESTICIDAL ENZYMES FOR USE ON NEMATODES, INSECTS, AND MOLLUSKS” (priority 2023, published 2024).
Read-outs that look alike come from different tables or passages of the source.

How the values were obtained:
[1] = system: SCN juveniles (SCN HG type 1.2.5.7, race 2); format: in vivo; conditions: for Difference in Percent Death of Nematodes for 0 to 24 Hours: 40 μL of each treatment per well
Source text: To identify an additional esterase enzyme with efficacy in reducing SCN viability, we performed an in-vitro plate assay with a Pseudomonas sp. esterase (SEQ ID NO: 248) free enzyme direct treatment. The Pseudomonas sp. esterase (SEQ ID NO: 248) was produced by fermentation in Bacillus subtilis. The enzyme was cloned into a Bacillus expression plasmid p1797 with isopropyl β-d-1-thiogalactopyranoside (IPTG) inducible expression. The plasmid was transformed into B. subtilis, and the gene sequence was confirmed. The strain was grown in rich media until an optical density (OD) 0.2-0.5 was reached. Enzyme expression was then induced by addition of […] IPTG. Following the culture harvest, cells were removed by filtration through a […] filter. The culture filtrate containing the secreted enzyme was then collected and used for further applications.
(§1) SCN eggs were obtained from SCN HG type 1.2.5.7, race 2. Eggs were rinsed 4 times with sterile water. Eggs were transferred to a 6-well plate and resuspended in 5 mL of 3 mM ZnSO4. The plate was sealed with parafilm, covered with aluminum foil to prevent light from entering the plate, and placed in a plate growth chamber at 25° C. and 80% relative humidity. After 6-7 days of incubation, an estimate of hatched SCN juveniles was obtained from the well to determine the overall number of juveniles per 10 μL. The concentration of the hatchery solution was adjusted until it consisted of 20-30 juveniles per 10 μL.
Potato dextrose agar media containing chloramphenicol and chlortetracycline was prepared and added to sterile twenty-four-well cell culture plates (1 mL per well). The plates were divided according to the pre-determined N-value for each treatment (N=12-24). Each treatment being tested was added to the agar surface within each well at a rate of 40 μL per well. Without allowing the treatments to dry, 10 μL of the prepared nematode mixture was added to the agar surface within each well.
To quantify the treatments' effects on nematode viability, the nematodes were examined under a dissecting microscope at 20× magnification. Initial (T0) values for the number of live juveniles, number of dead juveniles and total number of juveniles were recorded immediately after preparation of each well. The plates were then wrapped in parafilm around the open edge, encased in aluminum foil, and placed in secondary containment. The secondary containment was placed in a plant growth chamber at 25° C. and 80% relative humidity. At approximately 24 hours post addition of juveniles, the plates were evaluated, and the number of live juveniles, dead juveniles and total number of juveniles were recorded (T24).
The difference in percent death at T0 vs T24 was calculated by subtracting the percent dead at TO [(#dead juveniles/total #juveniles)×100] from the percent dead at T24 [(#dead juveniles/#total juveniles originally present)×100]. […] If the ANOVA indicated a significant difference existed among treatments, Tukey's HSD post hoc test was used to perform a pairwise contrast between each set of treatments. Different letters denote statistically significant results at P<0.05.
as §1, with “from” for “from SCN”, “rinsed four” for “rinsed 4”, “and 80-90%” for “and 80%”, “from each” for “from the”
Potato dextrose agar media containing chloramphenicol and chlortetracycline was prepared and added to sterile twenty-four-well cell culture plates (1 mL per well). […]

[2] = system: Btk resistant Diamondback moth; assay: Diet-surface overlay (DSO) bioassay; format: in vivo; conditions: Table 47, Btk resistant
Summary of the method: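 Enzyme treatments (0.1 mL) were applied over the surface of antibiotic-free artificial diet, with one first-instar larva per cell and 16 or 32 larvae per treatment. After 7 days at 27° C under a 16:8 light-dark cycle, larvae were scored as dead, larval stage, pupa or adult. Water served as the negative control and 1000 ppm Btk spores as the positive control.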

[3] = system: soybean cyst nematode (SCN); assay: Soil application around soybean plants: SCN cysts per gram of root tissue; format: in vivo, Heterodera glycines; conditions: Table 34; for Average cysts per g of root tissue: 0.5 mL/plant to soil, soybean 2830E3, 3 weeks, water control 139.8; for % Comparison to Control: water control = 100%, change in brackets
Experimental: To determine the efficacy of nematicidal enzymes applied to soil, a controlled environment trial was performed with 7-day old soybean plants (variety 2830E3) grown in pots. Enzymes were produced as described in Example 2. Prior to inoculation, 0.5 mL of neutral protease (SEQ ID NO: 127), esterase B (SEQ ID NO: 89), or chitinase 19F (SEQ ID NO: 182) free enzyme solution was applied to the soil around the base of each plant, or 0.5 mL of water was applied for the control (30 plants per treatment). Then, hatched SCN juveniles were applied to the soil around each plant as described in Example 2, and three weeks later, cysts per gram of root tissue was determined as described in Example 2. The data was analyzed as in Example 2 and appears in Tables 33 and 34.
To determine the efficacy of recombinant strains applied to soil, a controlled environment trial was performed as described in Example 18 above (Reduction of soybean cyst nematode reproduction by enzymes applied to soil), with the exception that a recombinant strain expressing neutral protease (SEQ ID NO: 127) was applied instead of a free enzyme solution. The recombinant strain was produced as in Example 3, and the treatment applied to soil as a whole cell broth.

Row | Molecule | Difference in Percent Death of Nematodes for 0 to 24 Hours ([1]; Table 32, water only 4%) [%] | difference in percent death during 24 hours ([1]; text to Table 32) [%] | Dead Larva ([2]; individuals of n = 32 after 7 days, mU/mL diet: SEQ 182 3.7, SEQ 185 0.6, water 1) | Early Pupa ([2]; n = 32, doses as E97, water 0) | Larva Stage I ([2]; n = 32, doses as E97, water 0) | Larva Stage II ([2]; n = 32, doses as E97, water 0) | Adult ([2]; n = 32, doses as E97, water 7) | Late Pupa ([2]; n = 32, doses as E97, water 24) | Average cysts per g of root tissue [3] | % Comparison to Control [3] | Difference in Percent Death of Nematodes for 0 to 24 Hours ([1]; Table 28, fertilizer 3% v/v) [%] | difference in percent death over twenty-four hours, single treatment relative to the combination Esterase B + 10-34-0 fertilizer ([1]; text to Table 28) [%]
1 | Streptomyces coelicolor Chitinase F (Chi19F) (protein, Chitinase F (Chi19F); Streptomyces coelicolor) ASCSSYHAWSADANYNTGDIVRYTDGKAYIAEHANPGYDPLISTWYWDPYACDGGSQTPVGNFVVSEAQFNQMFPGRNSFYTYSGLTAALSAYPGFANTGSDTTKKQEAAAFLANVSHETGGLVYIVEQNTANYPHYCDWNQPYGCPAGQAAYYGRGPIQLSWNFNYKAAGDALGIDLLGNPWLVQNDAAVAWKTGLWYWNTQSGPGTMTPHNAMVNGAGFGQTIRSINGSLECDGKNPAQVQSRVTKYQQFAQILGVSPGGNLYC | 24 | 24 | 2 | 4 | 2 | 1 | 1 | 22 | 95.6 cysts per g of root tissue | 68% (−32%) |  | 
2 | Bacillus subtilis Esterase (EstB without signal sequence) (protein, listed as Bacillus subtilis, Esterase (EstB H191 without signal sequence)) ESVHNPVVLVHGISGASYNFFAIKNYLISQGWQSNKLYAIDFYDKTGNNLNNGPQLASYVDRVLKETGAKKVDIVAHSMGGANTLYYIKYLGGGNKIQNVVTLGGANGLVSSTALPGTDPNQKILYTSIYSLNDQIVINSLSRLQGARNIQLYGIGHIGLLSNSQVNGYIKEGLNGGGLNTN |  |  |  |  |  |  |  |  | 117.3 cysts per g of root tissue | 84% (−16%) | 3 | −7
